# Experimental data as given in patent US20230227559A1 (INSTITUT PASTEUR, published 2023).
# T1: hFcgRIIA R131 (human, UniProt P12318)
# T1 construct: on the cell surface of CHO transfectants, FLAG tagged; Named only on the sheet; one member of the group m10; also called hFcγRIIA R131; CD32A R131
# T1 sequence (receptor chain, looked up): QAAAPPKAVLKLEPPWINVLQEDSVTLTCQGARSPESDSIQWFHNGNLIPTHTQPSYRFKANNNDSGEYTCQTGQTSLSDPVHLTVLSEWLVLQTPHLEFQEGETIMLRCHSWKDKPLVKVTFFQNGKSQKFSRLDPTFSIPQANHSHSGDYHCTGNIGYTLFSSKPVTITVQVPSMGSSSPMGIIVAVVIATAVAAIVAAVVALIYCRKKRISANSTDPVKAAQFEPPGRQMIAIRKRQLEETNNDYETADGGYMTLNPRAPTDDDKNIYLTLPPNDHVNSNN
# T2: hFcgRIIA H131 (human, UniProt P12318)
# T2 construct: on the cell surface of CHO transfectants, FLAG tagged; Named only on the sheet; one member of the group m10; also called hFcγRIIA H131; CD32A H131
# T2 sequence (receptor chain, looked up): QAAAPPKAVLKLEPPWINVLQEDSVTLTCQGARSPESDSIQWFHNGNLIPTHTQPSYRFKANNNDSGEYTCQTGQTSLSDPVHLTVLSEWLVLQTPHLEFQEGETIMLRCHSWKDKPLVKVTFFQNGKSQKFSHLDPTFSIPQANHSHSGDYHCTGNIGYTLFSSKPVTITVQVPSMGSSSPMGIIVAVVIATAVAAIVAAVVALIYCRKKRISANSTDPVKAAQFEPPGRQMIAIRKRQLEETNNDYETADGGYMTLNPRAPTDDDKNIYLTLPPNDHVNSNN
# T3: hFcgRIIB (human, UniProt P31994)
# T3 construct: on the cell surface of CHO transfectants, FLAG tagged; Named only on the sheet; one member of the group m10; also called hFcγRIIB; CD32B
# T3 sequence (receptor chain, looked up): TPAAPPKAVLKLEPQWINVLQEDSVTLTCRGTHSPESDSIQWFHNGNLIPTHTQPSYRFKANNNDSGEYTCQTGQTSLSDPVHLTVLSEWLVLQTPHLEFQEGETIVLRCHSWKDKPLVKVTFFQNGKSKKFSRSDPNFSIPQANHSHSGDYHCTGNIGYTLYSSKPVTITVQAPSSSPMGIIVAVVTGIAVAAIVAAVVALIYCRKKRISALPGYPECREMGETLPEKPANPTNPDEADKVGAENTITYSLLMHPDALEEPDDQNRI
# Experiments:
# [1] = biological target: T4, His-tagged ectodomains of hFcγRIIIA variant V158 (human, UniProt P08637 19-208); assay: SPR (ProteON), His-tagged hFcγRIIIA V158 ectodomains on chip, mAb injected
# T4 construct: also called human CD16A V158 ectodomains; hFcγRIIIA (V158 variant); not shown: His tag
# Protocol: Surface Plasmon Resonance analysis. His-tagged ectodomains of hFcγRIIIA variant V158 were covalently immobilized on a His-tag capture sensor chip for a ProteON instrument (BioRad). A range of dilutions of anti-hFcγRIII mAbs were injected onto the chip. Background binding was measured on an empty HTE sensor chip channel and subtracted from the binding values observed on coated channels. The resulting sensorgrams were fitted using a “1:1 binding with mass transfer” model, and association (Kₒₙ), dissociation (Koff) constants and KD were calculated as the […] using BIAevaluation 4.1 software.
# The affinity of the antibodies of the invention for the hFcγRIIIA (V158 variant) has been assessed by SPR as detailed above.
# hFcgRIIIA F176 = biological target: T5, hFcgRIIIA F176 (human, UniProt P08637); assay: FACS on CHO cells expressing FLAG tagged hFcγRIIIA F176; mAb at 1 µg/ml, PE-labelled F(ab')2 donkey anti-human IgG at 5 µg/ml
# T5 construct: on the cell surface of CHO transfectants, FLAG tagged; also called hFcγRIIIA F158; CD16A F158
# Protocol: (§1) Specificity. A collection of Chinese Hamster Ovarian (CHO) cells expressing FLAG tagged human FcγR (Bruhns P. et al, 2009) was used to analyze the specificity of the antibody against the hFcγR family. Cells were incubated on ice for 30 min with mAbs at 1 μg/ml, washed 3 time in PBS containing 0.5% BSA and 2 mM EDTA (MACS buffer) and then incubated on ice for 30 min with 5 μg/ml PE-labelled F(ab′)₂ Donkey Anti-Human IgG (Jackson ImmunoResearch). Data acquisition was performed on a MACSQuant flow cytometer (Miltenyi Biotec), and data analyzed using the Flowjo Software (FlowJo).
# (§2) The specificity of the chimeric modified antibody 3G4NA towards the members of the hFcγR family has been assessed as exposed in the Material & Methods part, in CHO cells expressing FLAG tagged human FcγR. The cells were incubated with 3G4NA mAbs at 1 μg/ml, washed and then incubated on ice for 30 min with 5 μg/ml PE-labelled F(ab′)₂ Donkey Anti-Human IgG. The FACS results are disclosed on FIG. 1.
# hFcgRIIA R131 = biological target: T1, hFcgRIIA R131; assay: FACS on CHO cells expressing FLAG tagged hFcγRIIA R131; mAb at 1 µg/ml, PE-labelled F(ab')2 donkey anti-human IgG at 5 µg/ml
# Protocol: as §1, §2
# [2] = biological target: T6, hFcγRI (FLAG tagged, expressed on CHO cells) (human, UniProt P12314 16-374); assay: FACS on CHO cells expressing FLAG tagged hFcγRI; mAb at 1 µg/ml, PE-labelled F(ab')2 donkey anti-human IgG at 5 µg/ml
# T6 construct: whole, on cells; also called CD64
# Protocol: as §1, §2
# [3] = biological target: T7, hFcγRIIIA V158 (FLAG tagged, expressed on CHO cells) (human, UniProt P08637 17-254); assay: FACS on CHO cells expressing FLAG tagged hFcγRIIIA V176 (V158 in the text); mAb at 1 µg/ml, PE-labelled F(ab')2 donkey anti-human IgG at 5 µg/ml
# T7 construct: whole, on cells; also called CD16A V158
# Protocol: as §1, §2
# hFcgRIIA H131 = biological target: T2, hFcgRIIA H131; assay: FACS on CHO cells expressing FLAG tagged hFcγRIIA H131; mAb at 1 µg/ml, PE-labelled F(ab')2 donkey anti-human IgG at 5 µg/ml
# Protocol: as §1, §2
# hFcgRIIB = biological target: T3, hFcgRIIB; assay: FACS on CHO cells expressing FLAG tagged hFcγRIIB; mAb at 1 µg/ml, PE-labelled F(ab')2 donkey anti-human IgG at 5 µg/ml
# Protocol: as §1, §2
# T4 sequence (P08637 other isoform, or with tags, fused parts or gaps mutant): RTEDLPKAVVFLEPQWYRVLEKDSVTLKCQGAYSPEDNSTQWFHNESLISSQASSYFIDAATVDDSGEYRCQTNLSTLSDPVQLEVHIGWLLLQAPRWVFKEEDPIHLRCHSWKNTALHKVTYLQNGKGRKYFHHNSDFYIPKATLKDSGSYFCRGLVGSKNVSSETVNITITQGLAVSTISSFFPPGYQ
# T5 sequence (P08637 17-254 limits assumed): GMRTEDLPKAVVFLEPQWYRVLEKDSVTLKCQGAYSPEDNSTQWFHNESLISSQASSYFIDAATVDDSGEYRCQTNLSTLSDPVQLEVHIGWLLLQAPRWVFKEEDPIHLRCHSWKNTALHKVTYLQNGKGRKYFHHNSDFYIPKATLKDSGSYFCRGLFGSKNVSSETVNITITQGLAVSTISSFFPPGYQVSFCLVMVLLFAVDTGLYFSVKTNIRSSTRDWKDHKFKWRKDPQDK
# T6 sequence (P12314 16-374): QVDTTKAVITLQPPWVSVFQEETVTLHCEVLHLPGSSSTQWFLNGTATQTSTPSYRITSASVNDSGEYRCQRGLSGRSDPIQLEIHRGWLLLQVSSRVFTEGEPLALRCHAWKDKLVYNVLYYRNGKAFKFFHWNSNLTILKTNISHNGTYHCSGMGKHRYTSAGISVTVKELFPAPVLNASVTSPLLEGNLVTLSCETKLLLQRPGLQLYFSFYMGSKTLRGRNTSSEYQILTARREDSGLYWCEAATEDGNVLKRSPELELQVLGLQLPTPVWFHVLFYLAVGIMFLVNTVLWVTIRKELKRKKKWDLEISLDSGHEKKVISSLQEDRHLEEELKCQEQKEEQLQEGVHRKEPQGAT
# T7 sequence (P08637 17-254 F176V limits assumed): as the sequence (P08637 17-254 limits assumed) above, with F160V counted along it
Kd [1],koff [1],kon [1],binding result (hFcgRIIIA F176),binding result (hFcgRIIA R131),binding result [2],binding result [3],binding result (hFcgRIIA H131),binding result (hFcgRIIB),Binder
7.9 nM,0.001 s⁻¹,130000 M⁻¹ s⁻¹,–,–,–,–,–,–,"Chimeric 3G4 hIgG1 (chimeric mouse-human IgG1 kappa anti-hFcγRIII mAb, clone 3G4) (antibody, also called mouse-human 3G4; 3G4 mouse-human chimeric monoclonal antibody) heavy: not shown light: DIVLTQSPSSISASLGDRITITCQATQDIIKNLNWYQQKPGKPPSFLIYYATEVAEGVPSRFSGSGSGSDYSLTISNLESEDFADYYCLQFYEFPYTFGGGTKLEIKRTVAAPSVFIFPPSDEQLKSGTASVVCLLNNFYPREAKVQWKVDNALQSGNSQESVTEQDSKDSTYSLSSTLTLSKADYEKHKVYACEVTHQGLSSPVTKSFNRGEC"
16 nM,0.00034 s⁻¹,19000 M⁻¹ s⁻¹,binds,no binding (tested: 1 µg/ml),binds,binds,no binding (tested: 1 µg/ml),no binding (tested: 1 µg/ml),"Chimeric 3G4 hIgG1 N297A format (chimeric modified mouse-human antibody 3G4NA) (antibody, also called 3G4N297A; mAb 3G4 N297A) heavy: not shown light: DIVLTQSPSSISASLGDRITITCQATQDIIKNLNWYQQKPGKPPSFLIYYATEVAEGVPSRFSGSGSGSDYSLTISNLESEDFADYYCLQFYEFPYTFGGGTKLEIKRTVAAPSVFIFPPSDEQLKSGTASVVCLLNNFYPREAKVQWKVDNALQSGNSQESVTEQDSKDSTYSLSSTLTLSKADYEKHKVYACEVTHQGLSSPVTKSFNRGEC"
